Measured values: patent US20220041658A1 (PROTAGONIST THERAPEUTICS, published 2022)
Positions of bridges follow the written chain, without caps; N, C: chain ends. Non-standard residues stand in square brackets, D forms with d. Trp(7-Me) = Cc1cccc2c(C[C@H](N)C(=O)O)c[nH]c12; 2Nal = N[C@@H](Cc1ccc2ccccc2c1)C(=O)O; AEF = NCCOc1ccc(C[C@H](N)C(=O)O)cc1; Cit = NC(=O)NCCC[C@H](N)C(=O)O; Pen = CC(C)(S)[C@H](N)C(=O)O; αMeK = C[C@](N)(CCCCN)C(=O)O

T1: interleukin-23 receptor (IL-23R) (human, UniProt Q5VWK5 24-629)
T1 sequence (looked up): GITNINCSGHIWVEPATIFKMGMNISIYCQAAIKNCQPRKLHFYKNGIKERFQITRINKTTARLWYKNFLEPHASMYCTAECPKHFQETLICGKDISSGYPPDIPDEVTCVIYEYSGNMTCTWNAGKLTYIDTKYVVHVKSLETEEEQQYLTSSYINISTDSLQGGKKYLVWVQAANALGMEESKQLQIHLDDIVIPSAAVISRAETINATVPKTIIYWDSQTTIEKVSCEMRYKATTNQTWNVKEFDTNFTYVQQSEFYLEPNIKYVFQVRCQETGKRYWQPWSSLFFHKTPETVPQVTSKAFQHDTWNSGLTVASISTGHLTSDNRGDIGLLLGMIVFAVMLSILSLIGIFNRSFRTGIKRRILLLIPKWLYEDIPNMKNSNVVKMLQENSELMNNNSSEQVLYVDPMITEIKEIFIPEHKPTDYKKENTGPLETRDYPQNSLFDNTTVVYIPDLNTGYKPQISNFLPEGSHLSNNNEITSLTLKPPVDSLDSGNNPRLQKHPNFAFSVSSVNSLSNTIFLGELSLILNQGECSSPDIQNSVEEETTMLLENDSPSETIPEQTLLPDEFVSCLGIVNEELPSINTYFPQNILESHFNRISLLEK

B1: Peptide of SEQ ID NO: 276 (peptide)
peptide: XNTXQXXXXKNX
modifications: Ac-[Pen]-N-T-[W(7-Me)]-Q-[Pen]-Phe[4-(2-aminoethoxy)]-[2-Nal]-[DiethylGly]-[Lys(Ac)]-N-[bA]-NH2; Pen-Pen disulfide
B2: Peptide of SEQ ID NO: 291 (peptide)
peptide: Ac-[Pen]NT[Trp(7-Me)]K(Ac)[Pen][His_3Bom][2Nal][αMeK]K(Ac)N[dL]-NH2
modifications: disulfide 1-6 (inferred)
B3: Peptide of SEQ ID NO: 262 (peptide)
peptide: Ac-[Pen]NT[Trp(7-Me)][Cit][Pen][AEF][2Nal][αMeK]K(Ac)NT-NH2
modifications: disulfide 1-6
SMILES: CC(=O)NCCCC[C@H](NC(=O)[C@](C)(CCCCN)NC(=O)[C@H](Cc1ccc2ccccc2c1)NC(=O)[C@H](Cc1ccc(OCCN)cc1)NC(=O)[C@H]1NC(=O)[C@H](CCCNC(N)=O)NC(=O)[C@H](Cc2c[nH]c3c(C)cccc23)NC(=O)[C@H]([C@@H](C)O)NC(=O)[C@H](CC(N)=O)NC(=O)[C@@H](NC(C)=O)C(C)(C)SSC1(C)C)C(=O)N[C@@H](CC(N)=O)C(=O)N[C@H](C(N)=O)[C@@H](C)O
B4: Peptide of SEQ ID NO: 254 (peptide)
peptide: XNTXKXXXXKNP
modifications: Ac-[Pen]-NT-[W(7-Me)]-[Lys(Ac)]-[Pen]-Phe[4-(2-aminoethoxy)]-[2-Nal]-[a-MeLys]-[Lys(Ac)]-N-[(D)Pro]-NH2; Pen-Pen disulfide
B5: Peptide of SEQ ID NO: 274 (peptide)
peptide: XNTXQXXXXKNX
modifications: Ac-[Pen]-N-T-[W(7-Me)]-Q-[Pen]-Phe[4-(2-aminoethoxy)]-[2-Nal]-[Achc]-[Lys(Ac)]-N-[bA]-NH2; Pen-Pen disulfide
B6: Peptide of SEQ ID NO: 269 (peptide)
peptide: XNTXQXXXXKLX
modifications: Ac-[Pen]-N-T-[W(7-Me)]-Q-[Pen]-Phe[4-(2-aminoethoxy)]-[2-Nal]-[a-MeLys]-[Lys(Ac)]-L-[bA]-NH2; Pen-Pen disulfide
B7: Peptide of SEQ ID NO: 267 (peptide)
peptide: XNTXQXXXXKNX
modifications: Ac-[Pen]-NT-[W(7-Me)]-Q-[Pen]-Phe[4-(2-aminoethoxy)]-[2-Nal]-[a-MeLys]-[Lys(Ac)]-N-[bA]-NH2; Pen-Pen disulfide
B8: Peptide of SEQ ID NO: 272 (peptide)
peptide: XNTXKXXXXKHX
modifications: Ac-[Pen]-N-T-[W(7-Me)]-[Lys(Ac)]-[Pen]-Phe[4-(2-aminoethoxy)]-[2-Nal]-[a-MeLys]-[Lys(Ac)]-H-[bA]-NH2; Pen-Pen disulfide
B9: Peptide of SEQ ID NO: 292 (peptide)
peptide: Ac-[Pen]NT[Trp(7-Me)]K(Ac)[Pen][His_Bzl][2Nal][αMeK]K(Ac)N[dL]-NH2
modifications: disulfide 1-6 (inferred)
B10: Peptide of SEQ ID NO: 271 (peptide)
peptide: XNTXKXXXXKSX
modifications: Ac-[Pen]-N-T-[W(7-Me)]-[Lys(Ac)]-[Pen]-Phe[4-(2-aminoethoxy)]-[2-Nal]-[a-MeLys]-[Lys(Ac)]-S-[bA]-NH2; Pen-Pen disulfide
B11: Peptide of SEQ ID NO: 260 (peptide)
peptide: Ac-[Pen]NT[Trp(7-Me)][Cit][Pen][AEF][2Nal][αMeK]K(Ac)NS-NH2
modifications: disulfide 1-6
SMILES: CC(=O)NCCCC[C@H](NC(=O)[C@](C)(CCCCN)NC(=O)[C@H](Cc1ccc2ccccc2c1)NC(=O)[C@H](Cc1ccc(OCCN)cc1)NC(=O)[C@H]1NC(=O)[C@H](CCCNC(N)=O)NC(=O)[C@H](Cc2c[nH]c3c(C)cccc23)NC(=O)[C@H]([C@@H](C)O)NC(=O)[C@H](CC(N)=O)NC(=O)[C@@H](NC(C)=O)C(C)(C)SSC1(C)C)C(=O)N[C@@H](CC(N)=O)C(=O)N[C@@H](CO)C(N)=O
B12: Peptide of SEQ ID NO: 256 (peptide)
peptide: Ac-[Pen]NT[Trp(7-Me)][Cit][Pen][AEF][2Nal][αMeK]K(Ac)N[dR]-NH2
modifications: disulfide 1-6
B13: Peptide of SEQ ID NO: 277 (peptide)
peptide: XNTXQXXXXKNX
modifications: Ac-[Pen]-N-T-[W(7-Me)]-Q-[Pen]-Phe[4-(2-aminoethoxy)]-[2-Nal]-[Acbc]-[Lys(Ac)]-N-[bA]-NH2; Pen-Pen disulfide
B14: Peptide of SEQ ID NO: 278 (peptide)
peptide: XNTXQXXXXKNX
modifications: Ac-[Pen]-N-T-[W(7-Me)]-Q-[Pen]-Phe[4-(2-aminoethoxy)]-[2-Nal]-[a-MeOrn]-[Lys(Ac)]-N-[bA]-NH2; Pen-Pen disulfide
B15: Peptide of SEQ ID NO: 282 (peptide)
peptide: XNTXQXXXXENX
modifications: Ac-[Pen]-N-T-[W(7-Me)]-Q-[Pen]-Phe[4-(2-aminoethoxy)]-[2-Nal]-[a-MeLys]-E-N-[bA]-NH2; Pen-Pen disulfide

Biological target: T1, interleukin-23 receptor (IL-23R)
Experiment: cell-based or functional assay

Row | Binder | pStat3 HTRF IC50 [nM]
1 | B1 | 0.564
2 | B2 | > 1000
3 | B3 | 0.996
4 | B4 | 3.65
5 | B5 | 0.484
6 | B6 | 10.1
7 | B7 | 0.506
8 | B8 | 7.13
9 | B9 | 128
10 | B10 | 1.91
11 | B11 | 0.699
12 | B12 | 0.754
13 | B13 | 0.639
14 | B14 | 0.849
15 | B15 | 1.37
